Each sequence was assayed on Escherichia coli TOP10 (assay: shrunken log2 fold change of peptide-encoding DNA abundance (4.5 h post-induction vs induction); higher = less antimicrobial activity (less host growth inhibition)). Settings: time post-induction: 4.5 h; library: site-saturation at positions 5, 18, 19, 20.
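Also: peptides expressed intracellularly from a pBAD plasmid library in pooled LB shake-flask culture, induced with 0.3% L-arabinose, DNA abundance read by NGS, three biological replicates, DESeq2 with apeglm shrinkage.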

| Sequence | shrunken log2 fold change |
| --- | --- |
| RRIRRRPPRLPRPRPRPFLSPRP | 0.128 |
| RRIRLRPPRLPRPRPRPGDGPRP | 0.869 |
| RRIRQRPPRLPRPRPRPANLPRP | 0.164 |
| RRIRSRPPRLPRPRPRPWRSPRP | 0.00174 |
| RRIRYRPPRLPRPRPRPPMIPRP | -1.39 |
| RRIRFRPPRLPRPRPRPTLEPRP | 0.197 |
| RRIRARPPRLPRPRPRPLTVPRP | 0.242 |
| RRIRFRPPRLPRPRPRPGGHPRP | -0.00918 |
| RRIRERPPRLPRPRPRPQNNPRP | -0.911 |
| RRIRHRPPRLPRPRPRPRPCPRP | 0.227 |
| RRIRLRPPRLPRPRPRPHWRPRP | 0.147 |
| RRIRHRPPRLPRPRPRPHVTPRP | -0.373 |
| RRIRVRPPRLPRPRPRPASPPRP | 0.102 |
| RRIRVRPPRLPRPRPRPHYEPRP | -0.173 |
| RRIRMRPPRLPRPRPRPNVYPRP | -0.368 |
| RRIRIRPPRLPRPRPRPMQMPRP | -0.52 |
| RRIRRRPPRLPRPRPRPILRPRP | 0.691 |
| RRIRRRPPRLPRPRPRPCTPPRP | -0.0236 |
| RRIRQRPPRLPRPRPRPDVDPRP | -0.152 |
| RRIRMRPPRLPRPRPRPMAVPRP | -0.00104 |
| RRIRWRPPRLPRPRPRPEDPPRP | 0.157 |
| RRIRHRPPRLPRPRPRPHAGPRP | -0.245 |
| RRIRMRPPRLPRPRPRPVGLPRP | 0.383 |
| RRIRQRPPRLPRPRPRPGEHPRP | -0.0241 |
| RRIRERPPRLPRPRPRPYYFPRP | -1.04 |

| Sequence | shrunken log2 fold change |
| --- | --- |
| RRIRWRPPRLPRPRPRPPKVPRP | 0.136 |
| RRIRYRPPRLPRPRPRPPFNPRP | -0.309 |
| RRIRRRPPRLPRPRPRPIINPRP | -0.207 |
| RRIRLRPPRLPRPRPRPFGHPRP | -0.177 |
| RRIRRRPPRLPRPRPRPKVFPRP | -0.00912 |
| RRIRQRPPRLPRPRPRPAQYPRP | -0.0388 |
| RRIRERPPRLPRPRPRPNPCPRP | -0.226 |
| RRIRYRPPRLPRPRPRPDHQPRP | -0.167 |
| RRIRRRPPRLPRPRPRPWEAPRP | 0.155 |
| RRIRGRPPRLPRPRPRPKDRPRP | 0.89 |
| RRIRMRPPRLPRPRPRPDIEPRP | 1.3 |
| RRIRWRPPRLPRPRPRPPTPPRP | 1.4 |
| RRIRVRPPRLPRPRPRPTLAPRP | 0.797 |
| RRIRTRPPRLPRPRPRPGNPPRP | -0.34 |
| RRIRIRPPRLPRPRPRPTREPRP | 0.255 |
| RRIRERPPRLPRPRPRPIFHPRP | -0.395 |
| RRIRDRPPRLPRPRPRPNVIPRP | -0.0253 |
| RRIRQRPPRLPRPRPRPDAKPRP | 0.199 |
| RRIRARPPRLPRPRPRPFYNPRP | -0.44 |
| RRIRNRPPRLPRPRPRPRGKPRP | 0.0233 |
| RRIRWRPPRLPRPRPRPYEDPRP | -0.231 |
| RRIRPRPPRLPRPRPRPRSTPRP | 0.347 |
| RRIRVRPPRLPRPRPRPMSVPRP | 0.0581 |
| RRIRERPPRLPRPRPRPMCHPRP | 0.0346 |
| RRIRERPPRLPRPRPRPCPVPRP | 0.0397 |

| Sequence | shrunken log2 fold change |
| --- | --- |
| RRIRYRPPRLPRPRPRPVLNPRP | -0.258 |
| RRIRARPPRLPRPRPRPILQPRP | 0.0186 |
| RRIRDRPPRLPRPRPRPDRCPRP | -0.149 |
| RRIRHRPPRLPRPRPRPNPHPRP | -0.35 |
| RRIRNRPPRLPRPRPRPWSIPRP | -0.16 |
| RRIRNRPPRLPRPRPRPFEHPRP | 0.0659 |
| RRIRRRPPRLPRPRPRPPVWPRP | 0.328 |
| RRIRPRPPRLPRPRPRPDYGPRP | 0.014 |
| RRIRLRPPRLPRPRPRPVNYPRP | -0.231 |
| RRIRCRPPRLPRPRPRPYFAPRP | -0.563 |
| RRIRIRPPRLPRPRPRPTRDPRP | -0.0265 |
| RRIRWRPPRLPRPRPRPCNAPRP | -0.0905 |
| RRIRLRPPRLPRPRPRPYAKPRP | 0.0695 |
| RRIRMRPPRLPRPRPRPPGYPRP | 0.599 |
| RRIRHRPPRLPRPRPRPYPVPRP | -0.00992 |
| RRIRLRPPRLPRPRPRPDSQPRP | -0.117 |
| RRIRGRPPRLPRPRPRPPCHPRP | 0.429 |
| RRIRPRPPRLPRPRPRPVGCPRP | 1.56 |
| RRIRYRPPRLPRPRPRPLQQPRP | -0.25 |
| RRIRIRPPRLPRPRPRPIYRPRP | -0.191 |
| RRIRERPPRLPRPRPRPRLVPRP | -0.0143 |
| RRIRWRPPRLPRPRPRPFYVPRP | -0.348 |
| RRIRHRPPRLPRPRPRPYENPRP | -0.0765 |
| RRIRERPPRLPRPRPRPKSYPRP | -0.0792 |
| RRIRYRPPRLPRPRPRPHSTPRP | -0.181 |
